Values quoted from earlier work, collected in publication PMC3150215.
Read-outs that look alike come from different tables or passages of the source.

What was measured:
[1] = biological target: Capping protein (Mus musculus) (UniProt P47753)
[2] = biological target: Capping protein (Mus musculus) (UniProt P47753); remark: listed apart in the source

Kd [1] [nM]	Kd [2] [nM]	Substance
6	–	CD2AP 474-513 (from UniProt Q9Y5K6)
–	1.5	CARMIL CBR115 CBR115 (from UniProt Q6EDY6)
